For the experiment, the target named is N-biotinylated HapB (Aspergillus nidulans, biotin (N-biotinylated)). As to the kind of experiment: SPR. Background: SPR reads the build-up and loss of mass on a sensor chip optically.

The values that follow come from publication PMC2831313 (Nucleic Acids Research, 2009).

B1: HapC/HapE heterodimer (wild-type HapC) (complex)
chain 1: MSSTSPSKEPEVEQEPQSGEEHEQMDKEQDNQTQGQGEFEVKEQDRWLPIANVARIMKLALPENAKIAKEAKECMQECVSEFISFITSEASEKCQQEKRKTVNGEDILFAMTSLGFENYAEALKIYLSKYRETQSARGEHQNRPPSSGYAGGGPVGGAASGPSVVRAGGAAAGGAFPEASDNAGSIMNQGLDPSEQDASAYGYPPMVGQGHNGAGGESY
chain 2: MEQAQQTSGQQQGRQQPVYDTRQGGHYGASAALAAQGFAPVAELYTGTWANVNQGLQGTARDILTTYWQHVINHLESDNHDYKIHQLPLARIKKVMKADPEVKMISAEAPILFAKGCDVFITELTMRAWIHAEDNKRRTLQRSDIAAALSKSDMFDFLIDIVPREEATSHAKRSSQSAGAPAGPGGPTAAGQLPQTQHGVQHHPHHMAPPDYGALGQHPLQDQEYRQQTMYGGAVQSDPTAAYAQPQTQMFEGMYTAYPHLPPQQ
For orientation: Kd means the free concentration of one partner at which half of the binding sites on the other are occupied at equilibrium, for simple one-to-one binding. Higher therefore signals weaker binding. For B1, the Kd was determined as 35.3 nM.
